# Data from patent publication US20260193348A1 (ANTENGENE BIOLOGICS, published 2026).
# What was measured:
# GPRC5D on MM.1S cells [1] = biological target: T1, GPRC5D on MM.1S cells (human, UniProt Q9NZD1 1-345); assay: FACS on MM.1S cells
# T1 construct: whole, on cells; MM.1S is called a GPRC5D positive expressed cell line and human multiple myeloma cells; also called G-protein coupled receptor family C group 5 member D
# Experimental: To evaluate the binding affinity of the generated chimeric bispecific antibody to T cells, the isolated CD3⁺ T cells were stained by antibodies and the binding affinity was determined by FACS analysis. The protocol of FACS analysis is described as follows: [0785] (a) CD3⁺ T cells were isolated from normal donors. [0786] (b) The isolated CD3⁺ T cells were washed by Staining Buffer (PBS+1% BSA) in round bottom 96-well plate. […] (c) Antibody dilutions were added to each well and mixed with the CD3+ T cells, incubated at 4 degrees for 1 hour. […] (d) Cells were spined at 300 g for 3 minutes, then the supernatants were discarded. [0789] (e) Cells were washed with Staining Buffer. [0790] (f) Step (d) was repeated, and the cells were incubated with secondary antibody in Staining Buffer for 0.5 hours at 4 degrees. [0791] (g) After incubation, step (d)-(e) were repeated. [0792] (h) Cells were resuspended in Staining Buffer and fluorescence signals were recorded by flow cytometry.
# The binding affinities of the generated humanized Fab-scFv-Fab bispecific antibodies to MM.1S were evaluated by FACS analysis. The protocol for FACS analysis is identical to that described in Example 1.2, except that MM.1S were used in this example.
# GPRC5D on MM.1S cells [2] = biological target: T1, GPRC5D on MM.1S cells; assay: cell-based or functional assay
# GPRC5D on MM.1S cells [3] = biological target: T1, GPRC5D on MM.1S cells; assay: cell-based or functional assay; remark: listed apart in the source
# [4] = biological target: T2, GPRC5D on multiple myeloma cells (human, UniProt Q9NZD1 1-345); assay: FACS on MM.1S cells
# T2 construct: whole, on cells; Endogenous GPRC5D on multiple myeloma cell lines; also called G-protein coupled receptor family C group 5 member D; MM.1S, MOLP-8, L363, RPMI8226 cells
# [5] = biological target: T3, CD3 on T cells / Jurkat cells (human, UniProt P07766 23-207; P04234 22-171; P09693 23-182); assay: FACS on Jurkat cells
# T3 construct: whole, on cells; Native CD3 complex on CD3+ T cells isolated from normal donors or on Jurkat cells; also called human CD3; CD3+ T cells
# T3 sequence (P07766 23-207, chain 1 of 3): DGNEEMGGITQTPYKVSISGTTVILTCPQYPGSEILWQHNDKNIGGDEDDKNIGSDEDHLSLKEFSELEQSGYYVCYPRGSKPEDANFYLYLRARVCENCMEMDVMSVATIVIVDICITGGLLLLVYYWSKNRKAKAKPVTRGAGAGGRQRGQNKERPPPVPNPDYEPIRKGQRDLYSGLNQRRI
# T3 sequence (P04234 22-171, chain 2 of 3): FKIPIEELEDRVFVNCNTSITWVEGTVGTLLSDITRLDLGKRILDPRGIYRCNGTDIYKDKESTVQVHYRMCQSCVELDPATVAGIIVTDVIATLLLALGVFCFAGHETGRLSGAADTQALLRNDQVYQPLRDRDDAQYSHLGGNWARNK
# T3 sequence (P09693 23-182, chain 3 of 3): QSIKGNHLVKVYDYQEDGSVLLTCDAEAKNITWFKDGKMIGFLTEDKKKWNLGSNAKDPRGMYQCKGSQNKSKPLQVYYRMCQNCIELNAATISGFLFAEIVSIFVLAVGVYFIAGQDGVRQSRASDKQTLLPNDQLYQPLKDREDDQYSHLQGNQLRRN
# T1 sequence (Q9NZD1 whole entry): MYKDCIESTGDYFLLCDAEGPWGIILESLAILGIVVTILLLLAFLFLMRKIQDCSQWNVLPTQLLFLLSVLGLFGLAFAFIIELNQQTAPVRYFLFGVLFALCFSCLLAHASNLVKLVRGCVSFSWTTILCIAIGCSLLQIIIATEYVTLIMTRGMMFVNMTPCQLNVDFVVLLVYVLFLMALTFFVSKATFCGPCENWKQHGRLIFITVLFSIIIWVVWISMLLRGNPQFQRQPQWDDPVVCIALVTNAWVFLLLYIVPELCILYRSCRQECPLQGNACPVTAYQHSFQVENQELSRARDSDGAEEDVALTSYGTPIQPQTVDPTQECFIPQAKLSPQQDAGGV
# T2 sequence (Q9NZD1 whole entry): as above
binding result [4],binding result [5],Binder,further results
binds,binds,"Bis-40E9-L2H10 (bispecific antibody, L234A/L235A) VH: EVQLVQSGAEVKKPGASVKVSCKASGYTFTSYVIHWVRQAPGQGLEWMGYFNPYNDGTKYNEEFKGRVTLTSDKSTSTAYMELRSLRSDDTAVYYCARGGVRRYFDVWGQGTTVTVSS VL: DIQMTQSPSSLSASVGDRVTITCRASQDIGSNLNWLQQKPGKAIKRLIYATFGLDSGVPSRFSGSRSGTDFTLTISSLQPEDFATYYCQQYASFPYTFGGGTKVEIK scFv: EVQLVQSGAEVKKPGSSVKVSCKASGYTFSSYVIHWVRQAPGQCLEWMGYINPYNDVIKYNEKFKGRVTLTSDKSTSTAYMELSSLRSEDTAVYYCARDSYYSYEAFAYWGQGTLVTVSSGGGGSGGGGSGGGGSGGGGSEIVLTQSPDFQSVTPKEKVTITCSASSSVSYMHWYQQKPDQSPKRLIYDTSKLASGVPSRFSGSGSGTDFTLTINSLEAEDAATYYCQQWSSNPPTFGCGTKVEIK",
binds,binds,"Bis-40E9-L2H14 (bispecific antibody, L234A/L235A) VH: EVQLVQSGAEVKKPGASVKVSCKASGYTFTSYVIHWVRQAPGQGLEWMGYFNPYNDGTKYNEEFKGRVTLTSDKSTSTAYMELRSLRSDDTAVYYCARGGVRRYFDVWGQGTTVTVSS VL: DIQMTQSPSSLSASVGDRVTITCRASQDIGSNLNWLQQKPGKAIKRLIYATFGLDSGVPSRFSGSRSGTDFTLTISSLQPEDFATYYCQQYASFPYTFGGGTKVEIK scFv: EVQLVQSGAEVKKPGSSVKVSCKASGYTFSSYVIHWVRQAPGQCLEWMGYINPYNDVIKYNEKFKGRVTLTSDKSTSTAYMELSSLRSEDTAVYYCARESYYSYDGFAYWGQGTLVTVSSGGGGSGGGGSGGGGSGGGGSEIVLTQSPDFQSVTPKEKVTITCSASSSVSYMHWYQQKPDQSPKRLIYDTSKLASGVPSRFSGSGSGTDFTLTINSLEAEDAATYYCQQWSSNPPTFGCGTKVEIK",
binds,binds,"Bis-40E9-L2H7 (bispecific antibody, L234A/L235A) VH: EVQLVQSGAEVKKPGASVKVSCKASGYTFTSYVIHWVRQAPGQGLEWMGYFNPYNDGTKYNEEFKGRVTLTSDKSTSTAYMELRSLRSDDTAVYYCARGGVRRYFDVWGQGTTVTVSS VL: DIQMTQSPSSLSASVGDRVTITCRASQDIGSNLNWLQQKPGKAIKRLIYATFGLDSGVPSRFSGSRSGTDFTLTISSLQPEDFATYYCQQYASFPYTFGGGTKVEIK scFv: EVQLVQSGAEVKKPGSSVKVSCKASGYTFSSYVIHWVRQAPGQCLEWMGYINPGNGVIKYNEKFKGRVTLTSDKSTSTAYMELSSLRSEDTAVYYCARDSYSSYDGFAYWGQGTLVTVSSGGGGSGGGGSGGGGSGGGGSEIVLTQSPDFQSVTPKEKVTITCSASSSVSYMHWYQQKPDQSPKRLIYDTSKLASGVPSRFSGSGSGTDFTLTINSLEAEDAATYYCQQWSSNPPTFGCGTKVEIK",

# Continued, binder first:
Binder,binding result [4],binding result [5],further results
"Bis-40E9-L5H7 (bispecific antibody, Fab-scFv-Fab format with LALA mutations; copies: 1 + 1 + 2) heavy 1: not shown heavy 2: EVQLVQSGAEVKKPGASVKVSCKASGYTFTSYVIHWVRQAPGQGLEWMGYFNPYNDGTKYNEEFKGRVTLTSDKSTSTAYMELRSLRSDDTAVYYCARGGVRRYFDVWGQGTTVTVSSASTKGPSVFPLAPSSKSTSGGTAALGCLVKDYFPEPVTVSWNSGALTSGVHTFPAVLQSSGLYSLSSVVTVPSSSLGTQTYICNVNHKPSNTKVDKKVEPKSCGGGGSGGGGSEVQLVQSGAEVKKPGSSVKVSCKASGYTFSSYVIHWVRQAPGQCLEWMGYINPGNGVIKYNEKFKGRVTLTSDKSTSTAYMELSSLRSEDTAVYYCARDSYSSYDGFAYWGQGTLVTVSSGGGGSGGGGSGGGGSGGGGSEIVLTQSPDFQSVTPKEKVTITCSASSSVSYMHWYQQKPDQSPKRLIYDTSKLASGVPSRFSGSGSGTDFTLTINSLEAEDAATYYCQQWRSSPPTFGCGTKVEIKGGGGSGGGGSDKTHTCPPCPAPEAAGGPSVFLFPPKPKDTLMISRTPEVTCVVVDVSHEDPEVKFNWYVDGVEVHNAKTKPREEQYNSTYRVVSVLTVLHQDWLNGKEYKCKVSNKALPAPIEKTISKAKGQPREPQVCTLPPSREEMTKNQVSLSCAVKGFYPSDIAVEWESNGQPENNYKTTPPVLDSDGSFFLVSKLTVDKSRWQQGNVFSCSVMHEALHNHYTQKSLSLSPGK light: DIQMTQSPSSLSASVGDRVTITCRASQDIGSNLNWLQQKPGKAIKRLIYATFGLDSGVPSRFSGSRSGTDFTLTISSLQPEDFATYYCQQYASFPYTFGGGTKVEIKRTVAAPSVFIFPPSDEQLKSGTASVVCLLNNFYPREAKVQWKVDNALQSGNSQESVTEQDSKDSTYSLSSTLTLSKADYEKHKVYACEVTHQGLSSPVTKSFNRGEC",,,"Ratio of EC50 (relative to ATG-Bis-40E9) (GPRC5D on MM.1S cells [1]): 1.14 ratio; Ratio of Top MFI (relative to ATG-Bis-40E9) (GPRC5D on MM.1S cells [1]): 0.989 ratio; Ratio of IC50 (relative to ATG-Bis-40E9), MM.1S cytotoxicity (GPRC5D on MM.1S cells [2]): 9.82 ratio; Ratio of Top cytotoxicity (relative to ATG-Bis-40E9), MM.1S cytotoxicity (GPRC5D on MM.1S cells [2]): 0.99 ratio; Ratio of EC50 (relative to ATG-Bis-40E9), luciferase assay on MM.1S (GPRC5D on MM.1S cells [3]): 18 ratio; Ratio of Top RLU (relative to ATG-Bis-40E9), luciferase assay on MM.1S (GPRC5D on MM.1S cells [3]): 1.38 ratio"
"Bis-40E9-L2H9 (bispecific antibody, L234A/L235A) VH: EVQLVQSGAEVKKPGASVKVSCKASGYTFTSYVIHWVRQAPGQGLEWMGYFNPYNDGTKYNEEFKGRVTLTSDKSTSTAYMELRSLRSDDTAVYYCARGGVRRYFDVWGQGTTVTVSS VL: DIQMTQSPSSLSASVGDRVTITCRASQDIGSNLNWLQQKPGKAIKRLIYATFGLDSGVPSRFSGSRSGTDFTLTISSLQPEDFATYYCQQYASFPYTFGGGTKVEIK scFv: EVQLVQSGAEVKKPGSSVKVSCKASGYTFSSYVIHWVRQAPGQCLEWMGYINPYSDVIKYNEKFKGRVTLTSDKSTSTAYMELSSLRSEDTAVYYCARESFYSYDGFAYWGQGTLVTVSSGGGGSGGGGSGGGGSGGGGSEIVLTQSPDFQSVTPKEKVTITCSASSSVSYMHWYQQKPDQSPKRLIYDTSKLASGVPSRFSGSGSGTDFTLTINSLEAEDAATYYCQQWSSNPPTFGCGTKVEIK",binds,binds,
"Bis-40E9-L2H11 (bispecific antibody, L234A/L235A) VH: EVQLVQSGAEVKKPGASVKVSCKASGYTFTSYVIHWVRQAPGQGLEWMGYFNPYNDGTKYNEEFKGRVTLTSDKSTSTAYMELRSLRSDDTAVYYCARGGVRRYFDVWGQGTTVTVSS VL: DIQMTQSPSSLSASVGDRVTITCRASQDIGSNLNWLQQKPGKAIKRLIYATFGLDSGVPSRFSGSRSGTDFTLTISSLQPEDFATYYCQQYASFPYTFGGGTKVEIK scFv: EVQLVQSGAEVKKPGSSVKVSCKASGYTFSSYVIHWVRQAPGQCLEWMGYINPYNDVIKYNEKFKGRVTLTSDKSTSTAYMELSSLRSEDTAVYYCARDSYYSYRAFAYWGQGTLVTVSSGGGGSGGGGSGGGGSGGGGSEIVLTQSPDFQSVTPKEKVTITCSASSSVSYMHWYQQKPDQSPKRLIYDTSKLASGVPSRFSGSGSGTDFTLTINSLEAEDAATYYCQQWSSNPPTFGCGTKVEIK",binds,binds,
"Bis-40E9-L2H6 (bispecific antibody, L234A/L235A) VH: EVQLVQSGAEVKKPGASVKVSCKASGYTFTSYVIHWVRQAPGQGLEWMGYFNPYNDGTKYNEEFKGRVTLTSDKSTSTAYMELRSLRSDDTAVYYCARGGVRRYFDVWGQGTTVTVSS VL: DIQMTQSPSSLSASVGDRVTITCRASQDIGSNLNWLQQKPGKAIKRLIYATFGLDSGVPSRFSGSRSGTDFTLTISSLQPEDFATYYCQQYASFPYTFGGGTKVEIK scFv: EVQLVQSGAEVKKPGSSVKVSCKASGYTFSSYVIHWVRQAPGQCLEWMGYINPYNDVIKYNEKFKGRVTLTSDKSTSTAYMELSSLRSEDTAVYYCARESFSSYDGFAYWGQGTLVTVSSGGGGSGGGGSGGGGSGGGGSEIVLTQSPDFQSVTPKEKVTITCSASSSVSYMHWYQQKPDQSPKRLIYDTSKLASGVPSRFSGSGSGTDFTLTINSLEAEDAATYYCQQWSSNPPTFGCGTKVEIK",binds,binds,
"Bis-40E9-L5H7 (bispecific antibody, L234A/L235A) VH: EVQLVQSGAEVKKPGASVKVSCKASGYTFTSYVIHWVRQAPGQGLEWMGYFNPYNDGTKYNEEFKGRVTLTSDKSTSTAYMELRSLRSDDTAVYYCARGGVRRYFDVWGQGTTVTVSS VL: DIQMTQSPSSLSASVGDRVTITCRASQDIGSNLNWLQQKPGKAIKRLIYATFGLDSGVPSRFSGSRSGTDFTLTISSLQPEDFATYYCQQYASFPYTFGGGTKVEIK scFv: EVQLVQSGAEVKKPGSSVKVSCKASGYTFSSYVIHWVRQAPGQCLEWMGYINPGNGVIKYNEKFKGRVTLTSDKSTSTAYMELSSLRSEDTAVYYCARDSYSSYDGFAYWGQGTLVTVSSGGGGSGGGGSGGGGSGGGGSEIVLTQSPDFQSVTPKEKVTITCSASSSVSYMHWYQQKPDQSPKRLIYDTSKLASGVPSRFSGSGSGTDFTLTINSLEAEDAATYYCQQWRSSPPTFGCGTKVEIK",binds,binds,
"Bis-40E9-L2H16 (bispecific antibody, L234A/L235A) VH: EVQLVQSGAEVKKPGASVKVSCKASGYTFTSYVIHWVRQAPGQGLEWMGYFNPYNDGTKYNEEFKGRVTLTSDKSTSTAYMELRSLRSDDTAVYYCARGGVRRYFDVWGQGTTVTVSS VL: DIQMTQSPSSLSASVGDRVTITCRASQDIGSNLNWLQQKPGKAIKRLIYATFGLDSGVPSRFSGSRSGTDFTLTISSLQPEDFATYYCQQYASFPYTFGGGTKVEIK scFv: EVQLVQSGAEVKKPGSSVKVSCKASGYTFSDYVIHWVRQAPGQCLEWMGYINPYNDVIKYNEKFKGRVTLTSDKSTSTAYMELSSLRSEDTAVYYCARDSYYSYDGFAYWGQGTLVTVSSGGGGSGGGGSGGGGSGGGGSEIVLTQSPDFQSVTPKEKVTITCSASSSVSYMHWYQQKPDQSPKRLIYDTSKLASGVPSRFSGSGSGTDFTLTINSLEAEDAATYYCQQWSSNPPTFGCGTKVEIK",binds,binds,
